For 2 molecules, Kd results are on record in doi:10.1101/2020.01.22.915298 (bioRxiv, 2020).

Assay [1] deals with Heparin-Binding EGF-like Growth Factor, recombinant (UniProt Q99075). The experiment in a line: SPR. (In general: In SPR one partner is held on a chip, and binding of the other changes the refractive index at the surface.)
For assay [2], the target named is diphtheria toxin receptor-binding fragment (lysosomal targeting moiety) (Corynebacterium diphtheriae, UniProt P00588 418-567). The experiment in a line: SPR.
diphtheria toxin receptor-binding fragment (lysosomal targeting moiety), sequence (P00588 418-567): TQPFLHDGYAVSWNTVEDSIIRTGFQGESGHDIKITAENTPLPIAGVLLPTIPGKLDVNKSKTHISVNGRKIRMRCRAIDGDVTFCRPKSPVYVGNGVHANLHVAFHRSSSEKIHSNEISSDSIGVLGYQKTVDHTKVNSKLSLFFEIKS

For orientation: Kd means the free concentration of one partner at which half of the binding sites on the other are occupied at equilibrium, for simple one-to-one binding. With “LTM-TPP1 (TPP1 with an N-terminal LTM fusion)”, the Kd in assay [1] was determined as 19.1 nM.

B1: Heparin-Binding EGF-like Growth Factor, recombinant (receptor, UniProt Q99075 63-148, looked up)
chain: DLQEADLDLLRVTLSSKPQALATPNKEEHGKRKKKGKGLGKKRDPCLRKYKDFCIHGECKYVKELRAPSCICHPGYHGERCHGLSL
B1 returned a dissociation constant (Kd) in assay [2] of 13.3 nM.
